Measured values from paper PMC5696030.
Values belong to the substance of their own block, whether it stands above or below them.

How the values were obtained:
Test in all cases: AUC
Gly189Ala NFU1 (human) = Gly189Ala NFU1 (human) (UniProt Q9UMS0)
Gly189Arg NFU1 (human) = Gly189Arg NFU1 (human) (UniProt Q9UMS0)
Gly189Lys NFU1 (human) = Gly189Lys NFU1 (human) (UniProt Q9UMS0)
[1] = target: native human NFU1 (human) (UniProt Q9UMS0)

percent dimer (Gly189Ala NFU1 (human)): 3%
percent dimer with 1 mM TCEP (Gly189Ala NFU1 (human)): 3%
percent monomer (Gly189Ala NFU1 (human)): 95%
percent monomer with 1 mM TCEP (Gly189Ala NFU1 (human)): 95%
stoichiometry N (Gly189Ala NFU1 (human)): 2
Substance: Gly189Ala NFU1 (from UniProt Q9UMS0 10-254) (natural protein)

percent dimer (Gly189Arg NFU1 (human)): 4%
percent dimer with 1 mM TCEP (Gly189Arg NFU1 (human)): 4%
percent monomer (Gly189Arg NFU1 (human)): 95%
percent monomer with 1 mM TCEP (Gly189Arg NFU1 (human)): 94%
stoichiometry N (Gly189Arg NFU1 (human)): 2
Substance: Gly189Arg NFU1 (from UniProt Q9UMS0 10-254) (natural protein)

percent dimer (Gly189Lys NFU1 (human)): 5%
percent dimer with 1 mM TCEP (Gly189Lys NFU1 (human)): 6%
percent monomer with 1 mM TCEP (Gly189Lys NFU1 (human)): 89%
stoichiometry N (Gly189Lys NFU1 (human)): 2
Substance: Gly189Lys NFU1 (from UniProt Q9UMS0 10-254) (natural protein)

percent dimer [1]: 52%
percent dimer with 1 mM TCEP [1]: 44%
percent monomer [1]: 45%
percent monomer with 1 mM TCEP [1]: 44%
Substance: native human NFU1 (from UniProt Q9UMS0 10-254) (natural protein)
